Here are results for three molecules from patent US20260176342A1 (CITRYLL B V, published 2026).

Residue numbers refer to the chain shown, from its start. Square brackets hold non-standard residues; d marks the D form. Ends that are not written are not given here. Cit = NC(=O)NCCC[C@H](N)C(=O)O

For experiment [1], the target named is T1, citrullinated histone 4-derived peptide (SEQ ID NO: 20), C-terminal biotin (human, citrulline at position 3; biotin at the C-terminus).
T1 construct: Immobilized on streptavidin biosensors (Octet RED96); also called H4-derived peptide; N-terminal histone 4 peptide
T1 peptide: SGXGKGGKGLGK
Kind of experiment: Octet RED96 off-rate screen, biotinylated peptide on streptavidin biosensors, antibody 72 nM, 30 C. As for the experimental part: Off-rate screening of the isomerization-mutated antibodies was performed on an Octet® RED96 (biomolecule detection system) instrument (Pall ForteBio). All measurements were performed at 30° C. Streptavidin (SA) biosensors were first washed for 50 sec with PBS. 1 μg/ml N-terminal histone 2A (SEQ ID NO: 18) and histone 4 (SEQ ID NO: 20) peptides, containing both a citrulline at position 3 and a biotin at the C-terminus, were immobilized on SA biosensors for 200 sec, washed with PBS for 50 sec and excess reactive streptavidin molecules blocked with EZ-Link™ biocytin for 200 sec. After two additional 50 sec wash steps in PBS, antibodies at a concentration of 72 nM diluted in PBS were allowed to bind to the biosensors for 200 sec. Sensors were subsequently placed in PBS for 4000 sec in order to measure their dissociation rates.
Background signals generated with non-coated biosensors, which have been exposed to the various antibodies as well as signals from coated biosensors that have not been exposed to the various antibodies, have been subtracted before dissociation curves for each antibody were plotted. Both histone 2A and histone 4 dissociation rates constants (kdis×E-07 (1/s)) for each antibody were calculated applying a 1:1 interaction model (fitting local, full) using ForteBio data analysis software 8.1.
(In general: Biolayer interferometry detects binding as a change in optical thickness at a sensor tip.)

Experiment [2] has as its target T2, citrullinated histone 2A-derived peptide (SEQ ID NO: 18), C-terminal biotin (human).
T2 construct: Captured by its biotin on NeutrAvidin plates (ELISA) or streptavidin biosensors (Octet); also called histone-derived peptide; citrullinated H2A-derived peptide
T2 peptide: SG[Cit]GKQGGKARA-biotin
Briefly: CMC ELISA, biotinylated peptide on NeutrAvidin-coated plate, anti-human-HRP, OD 450 nm, interpolated on a calibration curve. As for the experimental part: hMQ22.101j/e samples from week 0, 2, 4, 6 and 8, and hMQ22.101f/g samples from week 0, 3 and 6 were subjected to an in house-validated CMC ELISA. 96-well ELISA plates were coated with NeutrAvidin™ ([…]) by overnight incubation at 4° C. Wells were washed 5 times with PBS-Tween® (polysorbate) 20 (PBS-T) and blocked by a 2 hour incubation with PBS-T+1% Bovine serum albumin (BSA) at room temperature (RT). After 5 more washes with PBS-T, wells were incubated for 1 hour at RT with a histone-derived peptide (SEQ ID NO 18: SGXGKQGGKARA), containing a citrulline (X) at position 3 and a C-terminal biotin (40 ng/well) in PBS-T+0.2% BSA. After another 5 washes with PBS-T, a calibration curve made from a reference lot of hMQ22.101j/e or hMQ22.101f/g by adding to the wells starting at […] and further diluted at a 1:1 ratio until reaching a concentration of 0.66 ng/ml in PBS-T+0.2% BSA. […]
Finally, accelerated stability samples that had been incubated for 0, 2, 3, 4, 6 and 8 weeks at 37° C. were added to the same plate at a concentration of 40 ng/ml in PBS-T+0.2% BSA and incubated for 2 hours at RT. […] Wells were incubated 10 min with TMB substrate before stopping the reaction with 2 M H₂SO₄ after which the optical density was measured at wavelength of 450 nm. […]
(In an ELISA, binding on a coated surface is turned into a signal by an enzyme label.)

For experiment [3], the target named is T2, citrullinated histone 2A-derived …. Briefly: CMC ELISA, biotinylated peptide on NeutrAvidin-coated plate, anti-human-HRP, OD 450 nm. As for the experimental part: hMQ22.101j/e samples from week 0, 2, 4, 6 and 8, and hMQ22.101f/g samples from week 0, 3 and 6 were subjected to an in house-validated CMC ELISA. 96-well ELISA plates were coated with NeutrAvidin™ ([…]) by overnight incubation at 4° C. Wells were washed 5 times with PBS-Tween® (polysorbate) 20 (PBS-T) and blocked by a 2 hour incubation with PBS-T+1% Bovine serum albumin (BSA) at room temperature (RT). After 5 more washes with PBS-T, wells were incubated for 1 hour at RT with a histone-derived peptide (SEQ ID NO 18: SGXGKQGGKARA), containing a citrulline (X) at position 3 and a C-terminal biotin (40 ng/well) in PBS-T+0.2% BSA. After another 5 washes with PBS-T, a calibration curve made from a reference lot of hMQ22.101j/e or hMQ22.101f/g by adding to the wells starting at […] and further diluted at a 1:1 ratio until reaching a concentration of 0.66 ng/ml in PBS-T+0.2% BSA. Spiked quality control (QC) samples made from the same reference lot hMQ22.101j/e or hMQ22.101f/g at higher (HQC, 250 ng/ml), middle (MQC, 50 ng/ml), lower (LQC 3.75 ng/ml) and lower limit quality control (LLQC, 1.25 ng/ml) were diluted in PBS-T+0.2% BSA and added to the plate as well. These QC samples were used in order to validate the ELISA results.
Finally, accelerated stability samples that had been incubated for 0, 2, 3, 4, 6 and 8 weeks at 37° C. were added to the same plate at a concentration of 40 ng/ml in PBS-T+0.2% BSA and incubated for 2 hours at RT. Wells were washed 5 times with PBS-T and incubated with rabbit anti-human-HRP antibody (1:12.000 in PBS-T+0.2% BSA) for 1 hour at RT followed by 3 washes with PBS-T and 3 washes with PBS. Wells were incubated 10 min with TMB substrate before stopping the reaction with 2 M H₂SO₄ after which the optical density was measured at wavelength of 450 nm. A sigmoidal calibration curve was plotted and fitted using the values from the serial diluted reference antibody. Concentrations of the QC samples and accelerated stability samples were recalculated using the equation from the sigmoidal fitted curve.

B1: hMQ22.101f/g (antibody, V domains shown)
VH: RIQLVQSGAEVKKPGASVKVSCKASGYTFTNYGMHWVRQAPGQGLEWMGWINTYSGEATYAQKFQGRVTMTRDTSISTAYMELSRLRSDDTAVYYCLRGYTYQSFDEGGDYWGQGTLVTVSS
VL: DVVMTQSPLSLPVTLGQPASISCRSSQSLLDSDGKTYLNWFQQRPGQSPRRLIYLVSKLDSGVPDRFSGSGSGTDFTLKISRVEAEDVGVYYCWQGTHFPYTFGQGTKLEIK
notes: Full-size humanized antibody; also called humanized therapeutic antibody with heavy chain hVH22.101f and light chain hVL22.101g; tACPA
For the molecule B1, the binding result in experiment [1] and in experiment [2] was “binds” each time.

B2: hMQ22.101j/j (antibody, V domains shown)
VH: B1 VH with R1Q, I2V
VL: B1 VL with L30V, D31S
notes: also called VL CDR1 aspartate-mutated antibody (DS site to SS)
In the case of B2, in experiment [3], the binding result is “binds”.

B3: hMQ22.101j/e (antibody, V domains shown)
VH: B1 VH with R1Q, I2V
VL: B1 VL with L30V
notes: Full-size antibody with full-length human heavy and light chains; also called humanized therapeutic antibody with heavy chain hVH22.101j and light chain hVL22.101e; tACPA
With B3, the binding result in experiment [1] and in experiment [2] was “binds” in each case.
